Consider six molecules from patent US20260132208A1 (DOMAIN THERAPEUTICS, published 2026).

“And” between values parts separate entries of the source, which are not always exact repeats. Equal entries are not always repeated.

In test [1] the target is T1, human CCR8 (human, UniProt P51685 1-355). The test is described as follows: cell-based or functional assay.
For test [2], the target named is T1, human CCR8. The test is described as follows: cell-based or functional assay. The source holds these as a separate data set.
In test [3] the target is T1, human CCR8. The test can be described thus: cell-based or functional assay. This is another data set of the same source.
In test [4] the target is T1, human CCR8. The test can be described thus: cell-based or functional assay. This is another data set of the same source.
The target in a further test is T2, pm3 (Y17 sulfated; Y15 and Y16 not sulfated).
T2 construct: also called sulfated CCR8 N-terminal peptide pm3
T2 sequence (peptide, as listed by the source): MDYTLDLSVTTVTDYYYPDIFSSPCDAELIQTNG
The test can be described thus: ELISA on coated peptide [cont.]. The method, boiled down: (§1)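 Coat: peptide 500 ng/ml, carbonate/bicarbonate buffer. mAb 1 μg/mL, then 1/10 dilution; 90 min RT; wash. TMB 15 min; OD read = reactivity.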

The target of a further test is T3, pm5 (Y15 and Y17 sulfated; Y16 not sulfated).
T3 construct: also called sulfated CCR8 N-terminal peptide pm5
T3 sequence (peptide, as listed by the source): as above
The test can be described thus: ELISA on coated peptide [cont.]. The method, boiled down:
as §1

The target of the next test is T4, pm6 (Y16 and Y17 sulfated; Y15 not sulfated).
T4 construct: also called sulfated CCR8 N-terminal peptide pm6
T4 sequence (peptide, as listed by the source): as above
The test can be described thus: ELISA on coated peptide [cont.]. The method, boiled down:
as §1

In another test the target is T5, pm8 (Y15, Y16 and Y17 sulfated).
T5 construct: also called sulfated CCR8 N-terminal peptide pm8
T5 sequence (peptide, as listed by the source): as above
The test is described as follows: ELISA on coated peptide [cont.]. The method, boiled down: as §1

The target of test [5] is T1, human CCR8. The test can be described thus: flow cytometry, hCCR8-transfected CHO-K1 cells. The method, boiled down: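 Bound mAb was detected with Alexa Fluor 488 anti-mouse IgG or PE anti-human IgG Fc by flow cytometry, with isotype controls. EC50 came from a four-parameter fit.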
In test [6] the target is T1, human CCR8. The test can be described thus: flow cytometry, inhibition of hCCL1-AF647 (10 nM) binding to hCCR8-CHO cells. The method, boiled down:
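hCCR8-transfected CHO cells preincubated 30 min at 4 °C with anti-CCR8 mAb (8 concentrations, top 10 μg/mL, 1/3 dilutions), washed, then exposed to labelled CCL1. Bound CCL1 quantified by flow cytometry; IC₅₀ of binding blockade from sigmoidal variable-slope fit.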

Test [7] addresses T6, human CCR8 with a SNAP-tag at the N-terminus (human, UniProt P51685 1-355, SNAP-tag labelled covalently with Lumi4-Terbium). The test can be described thus: cell-based or functional assay.
Test [8] addresses T6, human CCR8 with a SNAP-tag at the …. The test can be described thus: HTRF Tag-lite, inhibition of hCCL1-AF647 binding to SNAP-hCCR8 on HEK-293 cells. As for the experimental part: The inhibition of CCL1 binding to hCCR8 was evaluated with the Tag-Lite® technology from Cisbio (Revvity). Human CCR8 is engineered with a SNAP-tag at the N-terminus of the GPCR. hCCR8 SNAP-tag is transiently transfected on HEK-293 cell line using FuGene® (Promega, Madison, WI, USA). 48 hours after transfection, cells are labeled with the substrate Lumi4-Terbium® (Cisbio, Codolet, France) which covalently reacts with the SNAP-tag, for 1 h at 37° C. Thawed or freshly labeled cells are plated in a 384 low volume white plate (GREINER Bio-One, Courtaboeuf, France) (10000 cells/well/10 μl). […] The Kd was previously obtained in a saturation binding assay on the same cells. […] The plate is next incubated at 21° C. for 2 h. Detection of HTRF signal is performed on the multiplate reader EnVision (PerkinElmer, Waltham, MA, USA). The HTRF (665/620) ratio is calculated by EnVision software, the data exported are considered as the total binding. The specific binding is calculated then by subtracting the non-specific signal from the total binding. The Ki and IC₅₀ are calculated using the “One site-Fit Ki” and “One site-FitlogIC50” from GraphPad Prism 9 (Graphpad Software, San Diego, CA, USA), respectively.

The target in test [9] is T1, human CCR8. The test can be described thus: cell-based or functional assay. This is another data set of the same source.

B1: anti-CCR8 mAb 1-14 (antibody, V domains shown)
VH: QVQLVETGGGLVRPGNSLKLSCVTSGFTFSNYRMHWLRQPPGKRLEWIAVIKVKSDNYGANYAESVKGRFTISRDDSKSSVYLQVNRLREEDTATYYCSSPTYPGSSGFAYWGQGTLVTVSA
VL: DIQMTQTTSSLSASLGDRVTISCRASQDISNYLNWYQQKPDGTVKLLIYYTSRLHSGVPSRFSGSGSGTDYSLTISNLEQEDIATYFCQQGNKFPPTFGGGTKLEIN
notes: Murine hybridoma mAb
As to B1, in the test with human CCR8 [1], the “IC50 of CCL1-induced hCCR8 Gi2 signaling (BRET, HEK-293)” value (from here on “IC50 … (BRET, HEK-293)”) is 0.01 µg/mL and 0.066 nM. In addition, in the test with human CCR8 [2], the “residual hCCL1 (100 nM) Gi2 response, protocol #2, mAb 0.08 µg/mL” value is 93%; the “residual hCCL1 (100 nM) Gi2 response, protocol #2, mAb 0.4 µg/mL” value was determined as 89%; the “residual hCCL1 (100 nM) Gi2 response, protocol #2, mAb 10 µg/mL” value is 48%; the “residual hCCL1 (100 nM) Gi2 response, protocol #3, mAb 0.05 µg/mL” value stood at 92%. In addition, in the test with human CCR8 [2], the “residual hCCL1 (100 nM) Gi2 response, protocol #3, mAb 0.5 µg/mL” value was found to be 68% and the “residual hCCL1 (100 nM) Gi2 response, protocol #3, mAb 5 µg/mL” value is 50%. The “extrapolated top plateau of hCCL1 curve with 5 µg/mL mAb, protocol #3” value with human CCR8 [3] was 305000 % of hCCL1 (100 nM). Besides, in the test with human CCR8 [4], the “IC50 of CCL1-induced hCCR8 Gi2 signaling (BRET), pH 6.5” value is 0.014 µg/ml and 0.095 nM; the “IC50 of CCL1-induced hCCR8 Gi2 signaling (BRET), pH 7.4” value was 0.004 µg/ml and 0.026 nM. For the same molecule, the binding result in the test with pm3 was “binds”. In the test with pm5, the binding result was “binds”. Also, in the test with pm6, the binding result is reported as “binds”. In the test with pm8, the binding result was “binds”. Moreover, in the test with human CCR8 [5], the “% positive cells” value was 83% and the “MFI fold change to isotype ctrl” value was 17.6 fold. The IC50 with human CCR8 [6] is 0.28 µg/mL and 1.85 nM.

B2: anti-CCR8 mAb 1-7 (antibody, V domains shown)
VH: QVHLVETGGGLVRPGNSLKLSCVTSGFTLSNYRMHWLRQPPGKRLEWIAVIKVKSDNYGANYAESVKGRFTISRDDAKSSVYLQMNRLREEDTATYYCSRPDGFSPFVYWGQGTLVTVSA
VL: DIKMTQSPSSMYASLGERVTITCKASQDINSYLSWFQQKPGKSPKTLIYRANRLVDGVPSRFSGSGSGQDYFLTISSLEYEDMGIYYCLQYGEFPPTFGAGTKLELK
notes: Murine hybridoma mAb
Take B2: the “IC50 … (BRET, HEK-293)” value in the test with human CCR8 [1] was 0.018 µg/mL and 0.117 nM. In the test with human CCR8 [2], the “residual hCCL1 (100 nM) Gi2 response, protocol #2, mAb 0.08 µg/mL” value was 73%; the “residual hCCL1 (100 nM) Gi2 response, protocol #2, mAb 0.4 µg/mL” value was found to be 51%; the “residual hCCL1 (100 nM) Gi2 response, protocol #2, mAb 10 µg/mL” value was determined as 24%; the “residual hCCL1 (100 nM) Gi2 response, protocol #3, mAb 0.05 µg/mL” value worked out at 69%. Also, in the test with human CCR8 [2], the “residual hCCL1 (100 nM) Gi2 response, protocol #3, mAb 0.5 µg/mL” value was found to be 38% and the “residual hCCL1 (100 nM) Gi2 response, protocol #3, mAb 5 µg/mL” value stood at 30%. Further, in the test with human CCR8 [3], the “extrapolated top plateau of hCCL1 curve with 5 µg/mL mAb, protocol #3” value was 526000 % of hCCL1 (100 nM). Moreover, in the test with human CCR8 [4], the “IC50 of CCL1-induced hCCR8 Gi2 signaling (BRET), pH 6.5” value was 0.011 µg/ml and 0.073 nM; the “IC50 of CCL1-induced hCCR8 Gi2 signaling (BRET), pH 7.4” value is 0.007 µg/ml and 0.047 nM. For the same molecule, in the test with pm3, the binding result is on record as “binds”. Further, the binding result with pm5 is given as “binds”. In addition, the binding result in the test with pm6 is recorded as “binds”. The binding result in the test with pm8 is “binds”. Further, in the test with human CCR8 [5], the “% positive cells” value was 71.3% and the “MFI fold change to isotype ctrl” value was determined as 6.26 fold. In addition, in the test with human CCR8 [6], the IC50 was 0.89 µg/mL and 5.7 nM.

B3: Ref #1 (antibody, human IgG1, V domains shown)
VH: EVQLLESGGGLVQPGGSLRLSCAASGFTFSSYGMHWVRQAPGKGLEWVSAINWNGGSTGYADSVKGRFTISRDNSKNTLYLQMNSLRAEDTAVYYCARGHHSGYDGRFFDYWGQGTLVTVSS
VL: QSVLTQPPSVSGAPGQRVTISCTGSSSNIGAGYNVHWYQQLPGTAPKLLIYTNNRRPSGVPDRFSGSKSGTSASLAISGLRSEDEADYYCAAWDASLSGWVFGGGTKLTVL
notes: Benchmark; cloned into vectors encoding heavy and light chains of human IgG1, produced in CHO; also called TPP-21360 of WO 2021/260210
Consider B3, for which the “IC50 … (BRET, HEK-293)” value with human CCR8 [1] was 0.101 µg/mL and 0.675 nM. For the same molecule, in [7], the “% hCCR8 internalization with CCL1 300 nM, mAb 1 µg/ml (HTRF)” value turned out to be 126% and the “% hCCR8 internalization with CCL1 300 nM, mAb 10 µg/ml (HTRF)” value worked out at 111%. Further, the “% positive cells” value with human CCR8 [5] came out at 75.1%. This molecule came in with an IC50 with human CCR8 [6] of 0.65 µg/mL. In addition, in test [8], the IC50 was found to be 0.45 µg/mL and the Ki was 0.23 µg/mL.

B4: Ref #2 (antibody, human IgG1, V domains shown)
VH: QVQLVQSGAEVKKPGASVKVSCKASGYTFTSYYMHWVRQAPGQGLEWMGIINPSGGSTSYAQKFQGRVTMTRDTSTSTVYMELSSLRSEDTAVYYCARAVRNRFRFDYWGQGTLVTVSS
VL: QSALTQPASVSGSPGQSITISCTGTSSDVGSYNLVSWYQQHPGKAPKLMIYEVSKRPSGVSNRFSGSKSGNTASLTISGLQAEDEADYYCSSYAGSSTFVVFGGGTKLTVL
B4: in [7], the “% hCCR8 internalization with CCL1 300 nM, mAb 1 µg/ml (HTRF)” value was found to be 100% and the “% hCCR8 internalization with CCL1 300 nM, mAb 10 µg/ml (HTRF)” value was 90%.

B5: anti-CCR8 mAb 1-28 (antibody, human IgG1, kappa, V domains shown)
VH: EVQLVESGGGLVQPTGSLRLSCAASGFTFNAYAMNWVRQAPGKGLEWVARIRSKSNDYATYYGDSVKDRFTISRDDSQSMLYLQMNNLKTEDTAMYYCVRGREAYYRYDGGYYAMDYWGQGTSVTVSS
VL: DIVMTQAAPSVSVTPGESVSISCTSSKSLLHSNGNTYLYWFLQRPGQSPQLLIYRMSNLASGVPDRFSGSGSGTAFTLRISRVEAEDVGVYYCMQHREYPFTFGSGTKLEIKR
In the case of B5, in the test with human CCR8 [9], the “ADCC % max lysis, HUT78 targets, NK donor 1” value turned out to be 31%; the “ADCC % max lysis, HUT78 targets, NK donor 2” value was determined as 26%; the “ADCC EC50, HUT78 targets, NK donor 1” value worked out at 0.0733 nM; the “ADCC EC50, HUT78 targets, NK donor 2” value worked out at 0.0904 nM.

B6: Ref #3 (antibody, human IgG1, V domains shown)
VH: EVQLVESGGGLVQPGGSLKLSCAASGFTFNTYAMNWVRQASGKGLEWVARIRSKANNYATYYADSVKDRFTISRDDSKNTLYLQMNNLKTEDTAVYYCVRDRSRGEDYAMDYWGQGTLVTVSS
VL: DIVMTQSPLSLPVTPGEPASISCRSSKSLLHSNANTYLYWFLQKPGQSPQLLIYRMSNLASGVPDRFSGSGSGTAFTLKISRVEAEDVGVYYCMQHLEYPFTFGQGTKLEIK
On to B6, for which, in [7], the “% hCCR8 internalization with CCL1 300 nM, mAb 1 µg/ml (HTRF)” value stood at 95% and the “% hCCR8 internalization with CCL1 300 nM, mAb 10 µg/ml (HTRF)” value came to 103%.
